Measurements taken from US20090318342A1, “Compounds” (IMPERIAL INNOVATIONS LIMITED, priority 2005, published 2009).
Read-outs that look alike come from different tables or passages of the source.

T1: full-length collagenase 1 (MMP-1) (Homo sapiens, UniProt P03956)
T1 construct: full-length collagenase 1 (MMP-1)
T1 sequence (P03956 100-469): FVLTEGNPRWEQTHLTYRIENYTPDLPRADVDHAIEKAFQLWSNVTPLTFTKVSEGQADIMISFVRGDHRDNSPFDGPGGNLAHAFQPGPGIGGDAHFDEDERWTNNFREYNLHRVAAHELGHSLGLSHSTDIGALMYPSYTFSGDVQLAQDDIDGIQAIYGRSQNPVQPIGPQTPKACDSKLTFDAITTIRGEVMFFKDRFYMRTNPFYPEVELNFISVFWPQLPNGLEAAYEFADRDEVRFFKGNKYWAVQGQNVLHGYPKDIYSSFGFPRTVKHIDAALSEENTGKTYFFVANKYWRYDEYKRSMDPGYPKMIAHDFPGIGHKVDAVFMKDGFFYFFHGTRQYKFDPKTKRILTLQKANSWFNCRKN


Experiments:
[1] = target: catalytic domain of membrane-type 1 MMP (MMP-14(CD)); test: Enzyme inhibition kinetic study, MMP-14; type: biochemical; settings: Table I; enzyme 5 nM; pH 7.5; read-out: Ki(app) MMP-14(CD)
Protocol: FIG. 2. Inhibition of MMP and TACE by N-TIMP-3 and its mutants. A. Inhibition of MMP-14(CD) by wild-type and mutated N-TIMP-3. Open circles, wild-type N-TIMP-3; closed circles, T2G; and open squares, -1A. B. Comparison of the inhibition of TACE by wild-type N-TIMP-3, N-TIMP-1 and TAPI-2. The inhibitors were incubated with 0.5 nM TACE for 3 hr at room temperature, and the residual enzyme activity was measured with 10 μM Substrate III (R&D Systems). The assays were performed at pH 9.0 at a final NaCl concentration of 1 mM. Open circles, N-TIMP-3; closed circles, TAPI-2; and open squares, N-TIMP-1. C. Inhibition of TACE (0.5 nM) by wild-type and mutated N-TIMP-3. Open circles, wild-type inhibitor; closed circles, T2G; and open squares, -1A.
Enzyme inhibition kinetic studies—Inhibition kinetic studies for MMPs and TACE were carried out as described previously (19, 27) with modifications. Purified N-TIMP-3 and mutants were dialyzed against 20 mM Tris-HCl (pH 7.0), 50 mM NaCl containing 20% glycerol, centrifuged at 14,000 rpm for 10 min to remove any precipitate, and protein concentration was re-measured before conducting inhibition assays. […]
where v is the experimentally determined reaction velocity, v0 is the uninhibited activity, E is enzyme concentration, I is inhibitor concentration, K is the apparent inhibition constant (Ki^(app)) and h is the Hill coefficient. […]

[2] = system: bovine nasal cartilage explants; test: IL-1α-stimulated bovine nasal cartilage explants, GAG release; type: cell-based; settings: 3 days
Protocol: GAG released into the conditioned media is measured in duplicate using a modification of the dimethylmethylene blue (DMMB) assay as described in Farndale et al.. Shark chondroitin sulfate (0-2.62 μg) is used as standard. The % of total GAG released into the medium is calculated as follows: % of total GAG released=(total GAG in the medium)/(total GAG in the medium+total GAG remaining in the cartilage).
Bovine nasal cartilage explants were stimulated with IL-1α in the presence or absence of N-TIMP-1, TIMP-2, or N-TIMP-3 for 3 days.

[3] = target: T1, full-length collagenase 1 (MMP-1); settings: Table I; data taken from ref. 8; read-out: Ki(app) MMP-1; cited from earlier work
[4] = target: catalytic domain of membrane-type 1 MMP (MMP-14(CD)); settings: Table I; data taken from ref. 27; read-out: Ki(app) MMP-14(CD); cited from earlier work

| Ki [1] [nM] | Molecule | Inhibition of IL-1α-stimulated GAG release [2] | Ki [3] [nM] | Ki [4] [nM] |
| --- | --- | --- | --- | --- |
| 941 ± 206 | -1A: N-TIMP-3 mutant with the addition of an N-terminal alanine extension (-1A) (protein) ACTCSPSHPQDAFCNSDIVIRAKVVGKKLVKEGPFGTLVYTIKQMKMYRGFTKMPHVQYIHTEASESLCGLKLEVNKYQYLLTGRVYDGKMYTGLCNFVERWDQLTLSQRKGLNYRYHLGCN |  |  |  |
|  | N-TIMP-3: N-terminal inhibitory domain of TIMP-3 (residues 1 to 121), C-terminally His-tagged, wild-type (protein) CTCSPSHPQDAFCNSDIVIRAKVVGKKLVKEGPFGTLVYTIKQMKMYRGFTKMPHVQYIHTEASESLCGLKLEVNKYQYLLTGRVYDGKMYTGLCNFVERWDQLTLSQRKGLNYRYHLGCN | significantly inhibited | 1.2 ± 0.5 | 0.8 ± 0.03 |
